Publication PMC2756588

T1: Fus1, P11710
T1 sequence (P11710 432-512, looked up): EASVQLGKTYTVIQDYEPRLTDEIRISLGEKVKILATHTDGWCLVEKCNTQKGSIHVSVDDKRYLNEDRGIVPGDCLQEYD

T2: Bbc1, P47068
T2 sequence (P47068 1-78, looked up): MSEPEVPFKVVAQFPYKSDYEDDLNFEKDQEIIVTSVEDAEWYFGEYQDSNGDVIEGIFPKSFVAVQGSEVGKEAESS

T3: Cdc25, P04821
T3 sequence (P04821 50-136, looked up): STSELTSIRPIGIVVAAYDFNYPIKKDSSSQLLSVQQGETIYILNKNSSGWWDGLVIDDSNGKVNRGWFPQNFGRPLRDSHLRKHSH

T4: Bzz1-2, P38822
T4 sequence (P38822 568-633, looked up): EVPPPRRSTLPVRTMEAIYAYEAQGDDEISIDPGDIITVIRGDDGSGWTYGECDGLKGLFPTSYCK

T5: Abp1, P15891
T5 sequence (P15891 535-592, looked up): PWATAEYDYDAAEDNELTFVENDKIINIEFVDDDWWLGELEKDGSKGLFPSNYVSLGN

T6: Lsb3, P43603
T6 sequence (P43603 385-451, looked up): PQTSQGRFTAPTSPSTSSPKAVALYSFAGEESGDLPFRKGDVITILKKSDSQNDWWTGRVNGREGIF

T7: Hof1, Q05080
T7 sequence (Q05080 590-669, looked up): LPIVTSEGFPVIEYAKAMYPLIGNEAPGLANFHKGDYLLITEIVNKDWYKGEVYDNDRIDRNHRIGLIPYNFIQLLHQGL

T8: Nbp2, Q12163
T8 sequence (Q12163 103-180, looked up): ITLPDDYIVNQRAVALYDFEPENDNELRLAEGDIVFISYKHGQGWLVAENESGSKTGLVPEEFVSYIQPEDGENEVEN

T9: Myo5, Q04439
T9 sequence (Q04439 1072-1160, looked up): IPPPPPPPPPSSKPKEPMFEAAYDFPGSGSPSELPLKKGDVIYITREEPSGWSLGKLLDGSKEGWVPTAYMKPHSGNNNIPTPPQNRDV

T10: Pex13, P80667
T10 sequence (P80667 295-386, looked up): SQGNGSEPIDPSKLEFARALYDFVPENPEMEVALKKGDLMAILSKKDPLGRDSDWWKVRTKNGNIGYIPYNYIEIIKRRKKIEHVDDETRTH

T11: Bud14, P27637
T11 sequence (P27637 247-328, looked up): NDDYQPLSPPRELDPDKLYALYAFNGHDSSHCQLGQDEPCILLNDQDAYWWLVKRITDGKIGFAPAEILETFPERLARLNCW

T12: Bzz1-1, P38822
T12 sequence (P38822 478-572, looked up): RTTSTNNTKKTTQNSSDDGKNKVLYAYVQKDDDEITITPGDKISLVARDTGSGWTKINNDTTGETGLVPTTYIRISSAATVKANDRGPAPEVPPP

T13: Sla1-2, P32790
T13 sequence (P32790 60-140, looked up): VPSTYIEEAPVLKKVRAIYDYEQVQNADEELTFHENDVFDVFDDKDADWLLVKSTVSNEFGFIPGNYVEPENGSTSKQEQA

T14: Sla1-3, P32790
T14 sequence (P32790 344-424, looked up): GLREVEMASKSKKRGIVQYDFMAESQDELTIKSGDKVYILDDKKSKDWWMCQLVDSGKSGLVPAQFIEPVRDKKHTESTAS

T15: Lsb4, P32793
T15 sequence (P32793 402-468, looked up): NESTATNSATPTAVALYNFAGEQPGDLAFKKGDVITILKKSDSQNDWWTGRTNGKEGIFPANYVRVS

T16: Pin3, Q06449
T16 sequence (Q06449 53-122, looked up): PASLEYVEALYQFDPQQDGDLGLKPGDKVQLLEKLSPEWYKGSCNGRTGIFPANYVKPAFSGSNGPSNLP

T17: Boi1, P38041
T17 sequence (P38041 1-86, looked up): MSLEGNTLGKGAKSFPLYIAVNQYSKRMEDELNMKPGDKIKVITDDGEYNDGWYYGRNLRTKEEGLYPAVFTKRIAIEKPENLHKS

T18: Hse1, P38753
T18 sequence (P38753 208-285, looked up): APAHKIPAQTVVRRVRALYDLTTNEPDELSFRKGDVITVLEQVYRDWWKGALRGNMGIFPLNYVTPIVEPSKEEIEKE

T19: Lsb1, P53281
T19 sequence (P53281 45-122, looked up): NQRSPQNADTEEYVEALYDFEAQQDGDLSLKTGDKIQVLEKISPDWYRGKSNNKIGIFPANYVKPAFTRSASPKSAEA

T20: Cyk3, Q07533
T20 sequence (Q07533 1-83, looked up): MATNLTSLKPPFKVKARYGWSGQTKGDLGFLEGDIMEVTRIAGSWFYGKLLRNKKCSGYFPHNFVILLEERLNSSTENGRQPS

T21: Boi2, P39969
T21 sequence (P39969 32-116, looked up): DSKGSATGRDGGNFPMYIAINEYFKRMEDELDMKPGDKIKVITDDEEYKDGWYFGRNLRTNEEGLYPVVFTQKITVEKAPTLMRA


Legend:
Experiment in all cases: SPOT array
Fus1, P11710 = target: T1, Fus1, P11710; conditions: median of control spots 1200
Bbc1, P47068 = target: T2, Bbc1, P47068; conditions: median of control spots 796
Cdc25, P04821 = target: T3, Cdc25, P04821; conditions: median of control spots 969
Bzz1-2, P38822 = target: T4, Bzz1-2, P38822; conditions: median of control spots 4538
Abp1, P15891 = target: T5, Abp1, P15891; conditions: median of control spots 935
Lsb3, P43603 = target: T6, Lsb3, P43603; conditions: median of control spots 406
Hof1, Q05080 = target: T7, Hof1, Q05080; conditions: median of control spots 4086
Sho1, P40073 = conditions: median of control spots 1148
Chain of Sho1, P40073 (P40073 287-367): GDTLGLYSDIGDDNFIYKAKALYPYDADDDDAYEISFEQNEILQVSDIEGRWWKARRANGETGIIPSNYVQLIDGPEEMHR

Nbp2, Q12163 = target: T8, Nbp2, Q12163; conditions: median of control spots 357
Myo5, Q04439 = target: T9, Myo5, Q04439; conditions: median of control spots 471
Pex13, P80667 = target: T10, Pex13, P80667; conditions: median of control spots 1341
Bud14, P27637 = target: T11, Bud14, P27637; conditions: median of control spots 956
Bzz1-1, P38822 = target: T12, Bzz1-1, P38822; conditions: median of control spots 4446
Sla1-2, P32790 = target: T13, Sla1-2, P32790; conditions: median of control spots 712
Rvs167, P39743 = conditions: median of control spots 2707
Chain of Rvs167, P39743 (P39743 419-482): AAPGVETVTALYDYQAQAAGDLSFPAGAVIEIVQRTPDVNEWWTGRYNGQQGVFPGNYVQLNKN

Sla1-3, P32790 = target: T14, Sla1-3, P32790; conditions: median of control spots 5475
Lsb4, P32793 = target: T15, Lsb4, P32793; conditions: median of control spots 397
Pin3, Q06449 = target: T16, Pin3, Q06449; conditions: median of control spots 2171
Boi1, P38041 = target: T17, Boi1, P38041; conditions: median of control spots 1162
Hse1, P38753 = target: T18, Hse1, P38753; conditions: median of control spots 1727
Bem1-2, P29366 = conditions: median of control spots 4347
Chain of Bem1-2, P29366 (P29366 139-227): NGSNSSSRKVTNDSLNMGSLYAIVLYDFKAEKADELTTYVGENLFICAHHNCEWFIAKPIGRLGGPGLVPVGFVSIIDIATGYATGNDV

Myo3, P36006 = conditions: median of control spots 468
GST = conditions: median of control spots 978
Lsb1, P53281 = target: T19, Lsb1, P53281; conditions: median of control spots 388
Bem1-1, P29366 = conditions: median of control spots 4282
Chain of Bem1-1, P29366 (P29366 55-141): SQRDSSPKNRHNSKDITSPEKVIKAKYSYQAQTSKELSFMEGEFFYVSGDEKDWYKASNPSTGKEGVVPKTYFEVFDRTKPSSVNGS

Cyk3, Q07533 = target: T20, Cyk3, Q07533; conditions: median of control spots 1451
Boi2, P39969 = target: T21, Boi2, P39969; conditions: median of control spots 1161

| SPOT intensity (Fus1, P11710) | SPOT intensity (Bbc1, P47068) | SPOT intensity (Cdc25, P04821) | SPOT intensity (Bzz1-2, P38822) | SPOT intensity (Abp1, P15891) | SPOT intensity (Lsb3, P43603) | SPOT intensity (Hof1, Q05080) | SPOT intensity (Sho1, P40073) | SPOT intensity (Nbp2, Q12163) | SPOT intensity (Myo5, Q04439) | SPOT intensity (Pex13, P80667) | SPOT intensity (Bud14, P27637) | SPOT intensity (Bzz1-1, P38822) | SPOT intensity (Sla1-2, P32790) | SPOT intensity (Rvs167, P39743) | SPOT intensity (Sla1-3, P32790) | SPOT intensity (Lsb4, P32793) | SPOT intensity (Pin3, Q06449) | SPOT intensity (Boi1, P38041) | SPOT intensity (Hse1, P38753) | Binder | further results |
| --- | --- | --- | --- | --- | --- | --- | --- | --- | --- | --- | --- | --- | --- | --- | --- | --- | --- | --- | --- | --- | --- |
| 0 | 0 | 0 | 0 | 0 | 0 | 0 | 0 | 0 | 1 | 0 | 0 | 8 | 0 | 0 | 0 | 0 | 0 | 0 | 0 | VPVAPPPPPASLGQS | SPOT intensity (Bem1-2, P29366): 1; SPOT intensity (Myo3, P36006): 0; SPOT intensity (GST): 0; SPOT intensity (Lsb1, P53281): 0; SPOT intensity (Bem1-1, P29366): 4; SPOT intensity (Cyk3, Q07533): 0; SPOT intensity (Boi2, P39969): 0 |
| 0 | 7 | 16 | 26 | 127 | 22 | 0 | 60 | 2 | 83 | 61 | 6 | 1 | 27 | 0 | 1 | 84 | 195 | 0 | 8 | FSRRQSMDIPSKNRN | SPOT intensity (Bem1-2, P29366): 0; SPOT intensity (Myo3, P36006): 44; SPOT intensity (GST): 1; SPOT intensity (Lsb1, P53281): 200; SPOT intensity (Bem1-1, P29366): 7; SPOT intensity (Cyk3, Q07533): 0; SPOT intensity (Boi2, P39969): 1 |
| 12 | 54 | 108 | 11 | 42 | 2 | 178 | 38 | 0 | 11 | 21 | 33 | 0 | 1 | 0 | 25 | 10 | 40 | 5 | 216 | NMLSRPRLAKLPSIR | SPOT intensity (Bem1-2, P29366): 18; SPOT intensity (Myo3, P36006): 9; SPOT intensity (GST): 0; SPOT intensity (Lsb1, P53281): 59; SPOT intensity (Bem1-1, P29366): 0; SPOT intensity (Cyk3, Q07533): 1; SPOT intensity (Boi2, P39969): 2 |
| 0 | 0 | 0 | 3 | 0 | 0 | 0 | 0 | 0 | 0 | 0 | 0 | 1 | 0 | 0 | 0 | 0 | 0 | 0 | 0 | ATNVPVAPPPPPASL | SPOT intensity (Bem1-2, P29366): 0; SPOT intensity (Myo3, P36006): 0; SPOT intensity (GST): 0; SPOT intensity (Lsb1, P53281): 0; SPOT intensity (Bem1-1, P29366): 4; SPOT intensity (Cyk3, Q07533): 0; SPOT intensity (Boi2, P39969): 0 |
| 2 | 111 | 96 | 6 | 93 | 0 | 13 | 63 | 2 | 0 | 6 | 27 | 2 | 0 | 0 | 8 | 1 | 2 | 5 | 20 | NIKVLLNPKLGKPVK | SPOT intensity (Bem1-2, P29366): 3; SPOT intensity (Myo3, P36006): 6; SPOT intensity (GST): 0; SPOT intensity (Lsb1, P53281): 1; SPOT intensity (Bem1-1, P29366): 2; SPOT intensity (Cyk3, Q07533): 5; SPOT intensity (Boi2, P39969): 0 |
| 35 | 62 | 105 | 5 | 7 | 0 | 0 | 6 | 0 | 0 | 0 | 31 | 0 | 0 | 0 | 0 | 0 | 0 | 6 | 5 | NVLRKILEIPLHSFS | SPOT intensity (Bem1-2, P29366): 0; SPOT intensity (Myo3, P36006): 0; SPOT intensity (GST): 0; SPOT intensity (Lsb1, P53281): 0; SPOT intensity (Bem1-1, P29366): 2; SPOT intensity (Cyk3, Q07533): 1; SPOT intensity (Boi2, P39969): 0 |
